The target of series [1] is DNA ligase IIIα, human wild-type full-length (1–922 aa) (human).
For series [2] the target is unchanged. Kind of series: SPR; Biacore X-100, 25 °C; polβ, ligase IIIα or APTX amine-coupled on CM5; XRCC1 (wild-type or mutants) as analyte, 30 μl/min; 20 mM HEPES pH 7.4, 150 mM NaCl, 3 mM EDTA, 0.005% Surfactant P20; 1:1 (Langmuir) model.
Series [3] addresses DNA polymerase (pol) β, human wild-type full-length (1–335 aa) (human) (UniProt P06746). The series is described as above.
Series [4] has as its target Aprataxin (APTX), human wild-type full-length (human) (UniProt Q7Z2E3). Described as above.
Series [5] has as its target DNA polymerase (pol) β, human wild-type full-length (1–335 aa) (human) (UniProt P06746).
The target in series [6] is XRCC1 R280H R280H (human) (UniProt P18887). Kind of series: BLI. The following applies: BLI (Octet QKe): 20 mM HEPES pH 7.4, 200 mM NaCl, 0.5% BSA, 0.05% Tween 20, 20 °C; ternary complexes plus 10 mM MgCl2 and 0.1 mM dGTP or 1 mM ATP.
In series [7] the target is DNA ligase IIIalpha;XRCC1 wild-type (human;human) (UniProt P18887). Briefly: BLI. The following applies: 10 mM Mg2+, 1 mM ATP; 1:1 ligase/XRCC1; koff 2.0e-4; BLI (Octet QKe): 20 mM HEPES pH 7.4, 200 mM NaCl, 0.5% BSA, 0.05% Tween 20, 20 °C; ternary complexes plus 10 mM MgCl2 and 0.1 mM dGTP or 1 mM ATP.
Series [8] deals with DNA ligase IIIalpha (human). Kind of series: BLI. The following applies: BLI (Octet QKe): 20 mM HEPES pH 7.4, 200 mM NaCl, 0.5% BSA, 0.05% Tween 20, 20 °C, ternary complexes plus 10 mM MgCl2 and 0.1 mM dGTP or 1 mM ATP.
Series [9] addresses DNA polymerase beta (human) (UniProt P06746). Briefly: BLI. The following applies: BLI (Octet QKe): 20 mM HEPES pH 7.4, 200 mM NaCl, 0.5% BSA, 0.05% Tween 20, 20 °C; ternary complexes plus 10 mM MgCl2 and 0.1 mM dGTP or 1 mM ATP.
In series [10] the target is DNA polymerase beta;XRCC1 wild-type (human;human) (UniProt P06746+P18887). Kind of series: BLI. The following applies: BLI (Octet QKe): 20 mM HEPES pH 7.4, 200 mM NaCl, 0.5% BSA, 0.05% Tween 20, 20 °C; ternary complexes plus 10 mM MgCl2 and 0.1 mM dGTP or 1 mM ATP.
In series [11] the target is XRCC1 wild-type (human) (UniProt P18887). Kind of series: BLI. The following applies: BLI (Octet QKe): 20 mM HEPES pH 7.4, 200 mM NaCl, 0.5% BSA, 0.05% Tween 20, 20 °C; ternary complexes plus 10 mM MgCl2 and 0.1 mM dGTP or 1 mM ATP.
Series [12] deals with DNA polymerase beta (human) (UniProt P06746). Briefly: BLI. Conditions: BLI (Octet QKe): 20 mM HEPES pH 7.4, 200 mM NaCl, 0.5% BSA, 0.05% Tween 20, 20 °C; ternary complexes plus 10 mM MgCl2 and 0.1 mM dGTP or 1 mM ATP. The source holds these as a separate data set.

Aprataxin (APTX), human wild-type full-length (human), sequence (Q7Z2E3 whole entry, the tested form may be a part): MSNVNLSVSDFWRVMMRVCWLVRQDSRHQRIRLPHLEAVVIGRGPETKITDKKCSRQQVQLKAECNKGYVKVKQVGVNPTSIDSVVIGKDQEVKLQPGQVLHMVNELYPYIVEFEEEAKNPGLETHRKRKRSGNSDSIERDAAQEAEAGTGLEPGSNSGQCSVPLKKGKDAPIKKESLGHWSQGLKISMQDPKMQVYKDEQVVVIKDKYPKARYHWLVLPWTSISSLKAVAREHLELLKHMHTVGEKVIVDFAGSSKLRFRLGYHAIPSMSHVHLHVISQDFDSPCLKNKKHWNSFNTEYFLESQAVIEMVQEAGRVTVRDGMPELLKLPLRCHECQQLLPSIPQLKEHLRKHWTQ

In [1], “X-ray cross-complementing protein 1 (XRCC1), human wild-type full-length (1–633 aa) (from UniProt P18887 1-633) (natural protein)” gave an amount of ligation products, nick sealing of nick DNA with 3′-dG:C by ligase IIIα, with against without XRCC1 of 4 fold. Besides, the Kd in [2] was found to be 50.4 nM; in series [3], 10.2 nM; in series [4] it was 374 nM. For the same substance, in series [5], the amount of ligation products in the coupled assay (polβ dGTP:C insertion coupled to ligation by ligase IIIα), with against without XRCC1 was 2 fold.
In the case of “XRCC1 R109A mutant (from UniProt P18887 1-633) (natural protein)”, the Kd in [3] is 170 nM.
On the same count and under the same terms, for “XRCC1 V86R mutant (from UniProt P18887 1-633) (natural protein)” the value was 284 nM.
The same measure, in the same setting: to “XRCC1 cancer-associated variant R399Q (from UniProt P18887 1-633) (natural protein)” belongs 5.8 nM.
Turning to nick DNA with 3'-dG:C, the Kd in series [6] stood at 140 nM; in series [7] it was 6.5 nM; in series [8] (10 mM Mg2+, 1 mM ATP, no XRCC1, koff 5.0e-4), 22 nM; in series [8] (no ATP), 5 nM.
For one nucleotide gap DNA, template C, the Kd in series [9] stood at 355 nM; in series [10], 30 nM; in [6], 153 nM; in [11], 110 nM; in series [12] it was 5.4 nM.

(Values after PMC8405949.)
